Test results taken from article PMC8915953 (Frontiers in Microbiology, 2022).

Biological target: T1, IFITM3-C-LgBiT (human, UniProt Q01628 1-133)
T1 construct: also called C-terminal tagged IFITM3; not shown: LgBiT, C-terminal, kept
Assay: split reporter (BiFC, NanoBiT)
Details: partners not purified

T1 sequence (Q01628 whole entry): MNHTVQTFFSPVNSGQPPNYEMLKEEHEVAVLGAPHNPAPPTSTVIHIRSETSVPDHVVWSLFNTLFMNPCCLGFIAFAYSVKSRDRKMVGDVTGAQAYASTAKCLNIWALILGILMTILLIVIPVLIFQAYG

B1: ZMPSTE24-C-SmBiT (natural protein, human, UniProt O75844 1-475, looked up)
chain: MGMWASLDALWEMPAEKRIFGAVLLFSWTVYLWETFLAQRQRRIYKTTTHVPPELGQIMDSETFEKSRLYQLDKSTFSFWSGLYSETEGTLILLFGGIPYLWRLSGRFCGYAGFGPEYEITQSLVFLLLATLFSALTGLPWSLYNTFVIEEKHGFNQQTLGFFMKDAIKKFVVTQCILLPVSSLLLYIIKIGGDYFFIYAWLFTLVVSLVLVTIYADYIAPLFDKFTPLPEGKLKEEIEVMAKSIDFPLTKVYVVEGSKRSSHSNAYFYGFFKNKRIVLFDTLLEEYSVLNKDIQEDSGMEPRNEEEGNSEEIKAKVKNKKQGCKNEEVLAVLGHELGHWKLGHTVKNIIISQMNSFLCFFLFAVLIGRKELFAAFGFYDSQPTLIGLLIIFQFIFSPYNEVLSFCLTVLSRRFEFQADAFAKKLGKAKDLYSALIKLNKDNLGFPVSDWLFSMWHYSHPPLLERLQALKTMKQH
notes: also called C-terminal tagged ZMPSTE24; not shown: SmBiT, C-terminal, kept
Question: B1 was tested. Which “luminescence relative to the negative control pairs” value did it give?
Answer: ~12 fold
